From paper PMC5636895
One block for each molecule: values may come before it. Ends that are not written are not given here.

Assays:
[1] = target: polymerized fibrin (human) (UniProt P02679); assay: optical trap-based force spectroscopy; as a1, but with non-activated αIIbβ3 (no Mn^2+ activation) on the bead
fibrinogen (human) = fibrinogen (human) (UniProt P02671); assay: optical trap-based force spectroscopy; Mn^2+-activated αIIbβ3 on a laser-trapped latex bead tapped against a silica pedestal covalently coated with fibrinogen; 0.1 M HEPES, pH 7.4, 2 mg/ml BSA, 0.1% Triton X-100; two-state fit of the rupture force profile
monomeric fibrin (human) = monomeric fibrin (human) (UniProt P02679); assay: optical trap-based force spectroscopy; Mn^2+-activated αIIbβ3 on a laser-trapped latex bead tapped against a silica pedestal covalently coated with monomeric fibrin; 0.1 M HEPES, pH 7.4, 2 mg/ml BSA, 0.1% Triton X-100; two-state fit of the rupture force profile
[2] = target: polymerized fibrin (human) (UniProt P02679); assay: optical trap-based force spectroscopy; Mn^2+-activated αIIbβ3 (or BSA) on a laser-trapped 2.0 µm latex bead tapped against the edge of a fibrin clot in a flow chamber; 0.1 M HEPES, pH 7.4, 2 mg/ml BSA, 0.1% Triton X-100; 5 Hz, 800 nm amplitude; clot from re-calcified plasma or from purified fibrinogen, which one gave the tabulated data is not given; two-state fit of the rupture force profile
[3] = target: platelet integrin αIIbβ3 (human) (UniProt P05106); assay: optical trap-based force spectroscopy; as a5, with free γC-12 or cRGDFK present; concentrations not given
[4] = target: platelet integrin αIIbβ3 (human) (UniProt P05106); assay: optical trap-based force spectroscopy; as a7, with free γC-12 or cRGDFK present; concentrations not given
[5] = target: platelet integrin αIIbβ3 (human) (UniProt P05106); assay: optical trap-based force spectroscopy; as a1, with a competitive antagonist of αIIbβ3 (γC-12, cRGDFK or eptifibatide) present; concentrations not given

Sequence of UniProt P02679 (P02679 whole entry, looked up): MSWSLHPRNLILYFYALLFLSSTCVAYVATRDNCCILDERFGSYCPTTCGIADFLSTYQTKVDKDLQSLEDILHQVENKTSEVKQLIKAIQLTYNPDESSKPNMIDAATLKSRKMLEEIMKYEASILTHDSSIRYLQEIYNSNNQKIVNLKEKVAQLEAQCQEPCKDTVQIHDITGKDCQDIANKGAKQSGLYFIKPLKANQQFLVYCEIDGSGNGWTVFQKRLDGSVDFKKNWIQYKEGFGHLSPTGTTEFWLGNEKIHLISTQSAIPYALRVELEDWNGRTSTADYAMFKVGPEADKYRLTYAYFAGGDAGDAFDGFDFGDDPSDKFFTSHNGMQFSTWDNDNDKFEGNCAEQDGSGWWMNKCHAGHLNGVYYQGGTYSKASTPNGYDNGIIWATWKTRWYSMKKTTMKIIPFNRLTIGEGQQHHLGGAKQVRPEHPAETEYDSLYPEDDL
Sequence of UniProt P02671 (P02671 36-866, chain 1 of 3): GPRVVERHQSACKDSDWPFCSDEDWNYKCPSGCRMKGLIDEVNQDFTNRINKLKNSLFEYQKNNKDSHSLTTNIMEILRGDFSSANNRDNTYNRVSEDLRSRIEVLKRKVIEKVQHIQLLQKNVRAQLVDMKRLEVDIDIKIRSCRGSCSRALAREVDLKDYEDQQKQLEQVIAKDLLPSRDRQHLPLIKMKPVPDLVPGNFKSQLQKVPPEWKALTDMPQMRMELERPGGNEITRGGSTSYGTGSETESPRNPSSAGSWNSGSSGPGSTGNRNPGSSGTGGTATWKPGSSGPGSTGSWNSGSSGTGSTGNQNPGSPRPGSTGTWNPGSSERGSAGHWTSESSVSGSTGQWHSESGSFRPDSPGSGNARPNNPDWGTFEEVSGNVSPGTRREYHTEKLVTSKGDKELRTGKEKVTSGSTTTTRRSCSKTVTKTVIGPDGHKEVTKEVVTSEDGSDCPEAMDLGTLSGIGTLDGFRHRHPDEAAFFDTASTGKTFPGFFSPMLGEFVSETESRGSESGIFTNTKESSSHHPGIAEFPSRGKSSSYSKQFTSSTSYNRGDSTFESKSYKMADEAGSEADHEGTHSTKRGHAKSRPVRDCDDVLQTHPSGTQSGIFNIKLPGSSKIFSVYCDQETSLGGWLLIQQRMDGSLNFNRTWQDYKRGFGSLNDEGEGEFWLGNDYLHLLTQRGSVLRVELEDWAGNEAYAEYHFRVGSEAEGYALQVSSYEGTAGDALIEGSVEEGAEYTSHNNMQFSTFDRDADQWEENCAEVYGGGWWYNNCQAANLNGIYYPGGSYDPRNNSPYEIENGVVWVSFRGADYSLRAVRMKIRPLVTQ
Sequence of UniProt P02671 (P02675 45-491, chain 2 of 3, further chain): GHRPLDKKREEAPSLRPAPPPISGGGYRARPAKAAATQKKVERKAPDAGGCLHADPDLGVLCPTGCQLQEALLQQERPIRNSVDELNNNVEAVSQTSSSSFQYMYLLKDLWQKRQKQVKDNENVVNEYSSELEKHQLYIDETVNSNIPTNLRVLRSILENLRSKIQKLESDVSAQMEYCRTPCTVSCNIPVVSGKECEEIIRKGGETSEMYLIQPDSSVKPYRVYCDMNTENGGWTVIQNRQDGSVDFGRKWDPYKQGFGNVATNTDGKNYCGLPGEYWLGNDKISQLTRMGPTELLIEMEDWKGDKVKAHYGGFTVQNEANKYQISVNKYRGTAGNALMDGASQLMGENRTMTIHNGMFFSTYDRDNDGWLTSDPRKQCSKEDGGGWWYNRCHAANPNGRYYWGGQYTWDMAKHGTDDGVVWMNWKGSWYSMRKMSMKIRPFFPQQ
Sequence of UniProt P02671 (P02679 other isoform, or with tags, fused parts or gaps, chain 3 of 3, further chain): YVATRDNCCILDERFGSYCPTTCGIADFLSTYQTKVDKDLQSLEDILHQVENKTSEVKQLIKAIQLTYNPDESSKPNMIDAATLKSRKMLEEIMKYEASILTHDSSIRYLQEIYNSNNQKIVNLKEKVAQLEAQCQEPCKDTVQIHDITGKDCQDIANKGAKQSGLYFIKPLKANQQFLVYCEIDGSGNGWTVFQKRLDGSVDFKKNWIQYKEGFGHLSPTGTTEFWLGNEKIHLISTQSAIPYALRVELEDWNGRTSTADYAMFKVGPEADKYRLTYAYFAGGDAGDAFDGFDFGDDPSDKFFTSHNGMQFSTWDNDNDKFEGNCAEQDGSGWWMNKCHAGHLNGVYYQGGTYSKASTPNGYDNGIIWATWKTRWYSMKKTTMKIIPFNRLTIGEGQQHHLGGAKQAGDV

- cumulative binding probability, rupture forces 30–60 pN [1]: 4.7%
- cumulative binding probability, rupture forces >60 pN [1]: 1.7%
- cumulative binding probability, rupture forces 30–60 pN (fibrinogen (human)): 4.8%
- cumulative binding probability, rupture forces >60 pN (fibrinogen (human)): 3.6%
- highest rupture force (fibrinogen (human)): < 140 pN
- initial probability of the high-affinity state (two-state fit) (fibrinogen (human)): 0.0063
- peak of the strong rupture forces (fibrinogen (human)): 70 to 80 pN
- cumulative binding probability, rupture forces 30–60 pN (monomeric fibrin (human)): 21%
- cumulative binding probability, rupture forces >60 pN (monomeric fibrin (human)): 22%
- highest rupture force (monomeric fibrin (human)): < 140 pN
- initial probability of the high-affinity state (two-state fit) (monomeric fibrin (human)): 0.0181
- peak of the strong rupture forces (monomeric fibrin (human)): 70 to 80 pN
- cumulative binding probability, rupture forces 30–60 pN [2]: 4.6%
- cumulative binding probability, rupture forces >60 pN [2]: 3.2%
- initial probability of the high-affinity state (two-state fit) [2]: 0.014
- peak of the strong rupture forces [2]: 70 to 80 pN
Molecule: platelet integrin αIIbβ3 (from UniProt P05106 27-788) (receptor)

- cumulative binding probability of αIIbβ3 to m-fibrin with γC-12 present, rupture forces 30–60 pN [3]: 7.4%
- cumulative binding probability of αIIbβ3 to m-fibrin with γC-12 present, rupture forces >60 pN [3]: 12.3%
- cumulative binding probability of αIIbβ3 to fibrinogen with γC-12 present, rupture forces 30–60 pN [4]: 1.8%
- cumulative binding probability of αIIbβ3 to fibrinogen with γC-12 present, rupture forces >60 pN [4]: 0.2%
- cumulative binding probability of αIIbβ3 to p-fibrin with γC-12 present, rupture forces 30–60 pN [5]: 2.1%
- cumulative binding probability of αIIbβ3 to p-fibrin with γC-12 present, rupture forces >60 pN [5]: 0.8%
Molecule: fibrinogen γC-dodecapeptide (from UniProt P02679-2 426-437)

- cumulative binding probability of αIIbβ3 to m-fibrin with cRGDFK present, rupture forces 30–60 pN [3]: 5.1%
- cumulative binding probability of αIIbβ3 to m-fibrin with cRGDFK present, rupture forces >60 pN [3]: 2.7%
- cumulative binding probability of αIIbβ3 to fibrinogen with cRGDFK present, rupture forces 30–60 pN [4]: 2.5%
- cumulative binding probability of αIIbβ3 to fibrinogen with cRGDFK present, rupture forces >60 pN [4]: 0.3%
- cumulative binding probability of αIIbβ3 to p-fibrin with cRGDFK present, rupture forces 30–60 pN [5]: 2.2%
- cumulative binding probability of αIIbβ3 to p-fibrin with cRGDFK present, rupture forces >60 pN [5]: 0.6%
Molecule: RGDFK (also: cyclic, ring type not given here) [cyclic RGDFK peptide]
